Laboratory results taken from IntAct's records for PubMed 17889823.

B1: Programmed cell death protein 6 (Mus musculus), P12815 (parent)
chain: MAAYSYRPGPGGGPGPAAGAALPDQSFLWNVFQRVDKDRSGVISDNELQQALSNGTWTPFNPVTVRSIISMFDRENKAGVNFSEFTGVWKYITDWQNVFRTYDRDNSGMIDKNELKQALSGFGYRLSDQFHDILIRKFDRQGRGQIAFDDFIQGCIVLQRLTDIFRRYDTDQDGWIQVSYEQYLSMVFSIV
partner: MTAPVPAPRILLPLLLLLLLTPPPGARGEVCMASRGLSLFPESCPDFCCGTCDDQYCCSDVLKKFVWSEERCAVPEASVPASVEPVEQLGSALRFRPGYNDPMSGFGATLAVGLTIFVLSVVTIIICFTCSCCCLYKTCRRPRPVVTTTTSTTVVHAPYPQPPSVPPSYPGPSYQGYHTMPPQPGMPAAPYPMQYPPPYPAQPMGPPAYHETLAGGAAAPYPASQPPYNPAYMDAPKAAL

Variants of: B1
Details: with shsa5_human SHISA5, Q8N114

Row | Variant | effect of a mutation on the interaction
1 | E47D;E114D | disrupting interaction strength
